Experimental data taken from the supplement of paper PMC10724198.
± gives the standard deviation of the averaged measurements.

The sequences below were run on Saccharomyces cerevisiae (assay: protein stability index of tFT-peptide fusion (C-terminal peptide) (PSI (0-1 scale)); higher = more stable (slower turnover)). Details: genetic background: cdc34-1; temperature: 37 C.
Description: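 MPS profiling in S. cerevisiae of the tFT-X12 degron library: putative degron peptides plus stable controls, 12 aa, fused to the C-terminus of a sfGFP-mCherry timer. Cells are FACS-sorted into 8 mCherry/sfGFP bins and deep-sequenced. PSI runs from 0 (unstable) to 1 (stable). Backgrounds are wild type, das1Δ and doa10Δ at 30 °C, and wild type, das1Δ, cdc34-1 and cdc53-1 at 37 °C; 2-3 technical replicates each.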
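Note: PSI is a weighted mean of sequencing reads over stability bins, variants kept only with over 10 reads, mCherry proximal and sfGFP distal, peptide attached via GGGS linker.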

Sequence | protein stability index
KIILMCYTLITL | 0.255 ± 0.033
KIKQIKINNKIN | 0.43 ± 0.0033
KKIKKYTRKLKI | 0.707 ± 0.0088
KKKKRVKIQKKN | 0.628 ± 0.059
KKNLTHSIRVQA | 0.62 ± 0.028
KMKGLINKRKES | 0.533 ± 0.05
KNVFLIRGRKNC | 0.627 ± 0.054
KSRLFCFVYFLL | 0.333 ± 0.011
KTDVYPVSFFTC | 0.532 ± 0.013
KVLLYWRHAQRQ | 0.652 ± 0.052
KYKLYGIMIIEG | 0.39 ± 0.066
LAGLVRFWGCVG | 0.622 ± 0.022
LASSCYRHLLVV | 0.242 ± 0.0047
LCCTLFFCYSYH | 0.569 ± 0.032
LCSCMWISAIAI | 0.5594 ± 0.0027
LCSLPIVCCFFL | 0.513 ± 0.015
LCVGFISFCFCL | 0.48 ± 0.032
LCYFFFISLFLG | 0.628 ± 0.032
LFGFILLGVSCC | 0.0506 ± 0.0034
LFLIFFSFLFLC | 0.135 ± 0.041
LFLIYCFAFSIG | 0.258 ± 0.083
LFNRCCTILVVW | 0.189 ± 0.025
LFSVFSLVLFIF | 0.338 ± 0.0079
LFVSLSFVVFLP | 0.276 ± 0.0041
LFVVFVLLTFFV | 0.231 ± 0.039
LGSCSLIYRKFS | 0.597 ± 0.026

Sequence | protein stability index
LHLSSFVILLEL | 0.36297 ± 6.8e-05
LIEMVTTRYRLC | 0.59 ± 0.02
LKTKKKKTNTQK | 0.627 ± 0.0068
LLCLLLVPQPHR | 0.604 ± 0.015
LLFCFSVILFTC | 0.0922 ± 0.0021
LLMCCLPFLWVF | 0.409 ± 0.033
LLRFFPLLLFSF | 0.135 ± 0.048
LLSPFLLMLLFL | 0.4001 ± 0.0019
LLTGRFRILLVV | 0.0537 ± 0.0092
LLVRYRRALVLL | 0.338 ± 0.0093
LLVRYYLFYVLV | 0.357 ± 0.018
LMLISFLFLSLL | 0.487 ± 0.053
LPALPFPIPTFA | 0.0567 ± 0.00074
LPLSPPPLPSSR | 0.6697 ± 0.0028
LPSLPPPPPPPP | 0.675 ± 0.071
LPVSLWLVCSFF | 0.524 ± 0.009
LQLGFCFVAQFI | 0.6346 ± 0.0062
LQNCRVSVLLGW | 0.5443 ± 0.0023
LRFYLLTPPSPA | 0.59 ± 0.022
LRKARLFLKAKC | 0.645 ± 0.031
LRLCMVFAWFLT | 0.388 ± 0.011
LRLEFRTNWFLQ | 0.557 ± 0.042
LRVVLVEWMCVV | 0.248 ± 0.017
LRVVVGLCMCVL | 0.4743 ± 0.00078
LSCCIVLLIIFV | 0.245 ± 0.021
LSFLLLLGCFGS | 0.5966 ± 0.0035

Sequence | protein stability index
LSGVLFSLIRFY | 0.587 ± 0.06
LSLWLFRILSVR | 0.4052 ± 0.0027
LSPPLRHRLTPP | 0.675 ± 0.014
LSVRLYRTVFLV | 0.359 ± 0.044
LSVYGFYKMPAG | 0.501 ± 0.024
LVAGFVFIFFYR | 0.356 ± 0.053
LVCLTPPPSPFS | 0.689 ± 0.021
LVDPFAALRHVV | 0.624 ± 0.026
LVGWSWRGWFVV | 0.512 ± 0.029
LVIFSLLFSFSH | 0.22 ± 0.011
LVLVVFCPLWFW | 0.483 ± 0.035
LVPLSLLLCFFV | 0.515 ± 0.027
LWAPFWVSRVTA | 0.481 ± 0.017
LWGLVWGGVWGV | 0.683 ± 0.039
LYRIETLFMRAQ | 0.353 ± 0.029
LYVQSVCFSVPR | 0.463 ± 0.024
MALAVRVVLCGA | 0.0507 ± 0.0085
MALAVRVVRCGA | 0.406 ± 0.0042
MGVTVRVEGIRA | 0.52 ± 0.036
MLIAISASAARF | 0.452 ± 0.037
MLLFVSCCVFLF | 0.134 ± 0.021
MMYTLSMLLRLR | 0.43 ± 0.014
MPQSLKKMVFLA | 0.431 ± 0.057
MRLQLTFSILLF | 0.353 ± 0.036
MSRALSVLVVVA | 0.176 ± 0.029
MTLYSFSSALLA | 0.413 ± 0.045

Same assay, conditions: genetic background: cdc53-1; temperature: 37 C

Sequence | protein stability index
KIILMCYTLITL | 0.347 ± 0.041
KIKQIKINNKIN | 0.654 ± 0.13
KKIKKYTRKLKI | 0.765 ± 0.014
KKKKRVKIQKKN | 0.707 ± 0.052
KKNLTHSIRVQA | 0.717 ± 0.0094
KMKGLINKRKES | 0.657 ± 0.01
KNVFLIRGRKNC | 0.689 ± 0.0093
KSRLFCFVYFLL | 0.413 ± 0.013
KTDVYPVSFFTC | 0.738 ± 0.0099
KVLLYWRHAQRQ | 0.6916 ± 0.006
KYKLYGIMIIEG | 0.464 ± 0.016
LAGLVRFWGCVG | 0.7111 ± 0.0023
LASSCYRHLLVV | 0.323 ± 0.0065
LCCTLFFCYSYH | 0.547 ± 0.064
LCSCMWISAIAI | 0.574 ± 0.006
LCSLPIVCCFFL | 0.552 ± 0.016
LCVGFISFCFCL | 0.4954 ± 0.0039
LCYFFFISLFLG | 0.572 ± 0.014
LFGFILLGVSCC | 0.0719 ± 0.0073
LFLIFFSFLFLC | 0.0847 ± 0.014
LFLIYCFAFSIG | 0.328 ± 0.032
LFNRCCTILVVW | 0.22 ± 0.026
LFSVFSLVLFIF | 0.413 ± 0.011
LFVSLSFVVFLP | 0.381 ± 0.014
LFVVFVLLTFFV | 0.253 ± 0.0056
LGSCSLIYRKFS | 0.728 ± 0.017

Sequence | protein stability index
LHLSSFVILLEL | 0.317 ± 0.035
LIEMVTTRYRLC | 0.7192 ± 0.0016
LKTKKKKTNTQK | 0.633 ± 0.057
LLCLLLVPQPHR | 0.66 ± 0.011
LLFCFSVILFTC | 0.189 ± 0.062
LLMCCLPFLWVF | 0.432 ± 0.011
LLRFFPLLLFSF | 0.114 ± 0.01
LLSPFLLMLLFL | 0.395 ± 0.0071
LLTGRFRILLVV | 0.0715 ± 0.0019
LLVRYRRALVLL | 0.412 ± 0.018
LLVRYYLFYVLV | 0.442 ± 0.02
LMLISFLFLSLL | 0.461 ± 0.021
LPALPFPIPTFA | 0.0586 ± 0.0097
LPLSPPPLPSSR | 0.72639 ± 0.00044
LPSLPPPPPPPP | 0.717 ± 0.018
LPVSLWLVCSFF | 0.543 ± 0.02
LQLGFCFVAQFI | 0.675 ± 0.02
LQNCRVSVLLGW | 0.616 ± 0.011
LRFYLLTPPSPA | 0.6288 ± 0.0054
LRKARLFLKAKC | 0.678 ± 0.041
LRLCMVFAWFLT | 0.508 ± 0.039
LRLEFRTNWFLQ | 0.7363 ± 0.0049
LRVVLVEWMCVV | 0.295 ± 0.036
LRVVVGLCMCVL | 0.503 ± 0.007
LSCCIVLLIIFV | 0.35 ± 0.021
LSFLLLLGCFGS | 0.6236 ± 0.0046

Sequence | protein stability index
LSGVLFSLIRFY | 0.636 ± 0.011
LSLWLFRILSVR | 0.451 ± 0.017
LSPPLRHRLTPP | 0.729 ± 0.022
LSVRLYRTVFLV | 0.603 ± 0.016
LSVYGFYKMPAG | 0.5271 ± 0.0027
LVAGFVFIFFYR | 0.488 ± 0.021
LVCLTPPPSPFS | 0.799 ± 0.065
LVDPFAALRHVV | 0.768 ± 0.0078
LVGWSWRGWFVV | 0.6899 ± 0.0065
LVIFSLLFSFSH | 0.325 ± 0.047
LVLVVFCPLWFW | 0.581 ± 0.024
LVPLSLLLCFFV | 0.5647 ± 0.0036
LWAPFWVSRVTA | 0.513 ± 0.0085
LWGLVWGGVWGV | 0.722 ± 0.013
LYRIETLFMRAQ | 0.41 ± 0.022
LYVQSVCFSVPR | 0.537 ± 0.017
MALAVRVVLCGA | 0.0673 ± 0.038
MALAVRVVRCGA | 0.422 ± 0.018
MGVTVRVEGIRA | 0.517 ± 0.013
MLIAISASAARF | 0.5819 ± 0.0017
MLLFVSCCVFLF | 0.185 ± 0.011
MMYTLSMLLRLR | 0.5 ± 0.0093
MPQSLKKMVFLA | 0.628 ± 0.022
MRLQLTFSILLF | 0.43 ± 0.034
MSRALSVLVVVA | 0.211 ± 0.011
MTLYSFSSALLA | 0.464 ± 0.013
